Columns and labels:
[1] = Phase 1 SAD/MAD clinical study: safety and tolerability (TEAEs, vital signs)
Procedure: This was a first-in-human, double-blind, randomized, placebo-controlled study comprised of two parts: single ascending dose (SAD) and multiple ascending dose (MAD) in participants with obesity.
Participants were randomly assigned to receive AMG133 or placebo in a ratio of 3:1. […] The MAD evaluated 3 doses given every 4 weeks on Days 1, 29 and 57. […] Enrollment into the SAD and MAD cohorts was sequential. Subsequent cohorts were dosed after the dosing regimen in the preceding cohort had been recommended by the Dose Level Review Team (DLRT) to be safe and well tolerated based on the safety and laboratory data through at least day 15. […] Placebo was provided as normal saline, the volume matching the investigational drug at each dose level.
The primary endpoints were the participant incidence of treatment-emergent adverse events, changes in laboratory safety tests, vital signs, and 12-lead electrocardiograms. […] The exploratory endpoints were pharmacodynamic parameters including, but not limited to, concentrations of fasting glucose, insulin, c-peptide, glucagon,, hemoglobin A1c, changes in body weight, waist circumference, and BMI.
The sample size for this trial was not based on any statistical inferences. As the trial was an exploratory first-in-human study with a small sample size, all pharmacokinetic, pharmacodynamic and safety parameters were analyzed descriptively. Participants who withdrew from the study prior to day 15 in the SAD or day 36 in the MAD were replaced so that the target numbers of participants for safety review and data collection would be achieved; replacement participants were assigned to receive the same treatment as the withdrawn participant. […] The safety analysis set was the same as the full analysis set. […] No missing data was imputed.

[2] = Phase 1 MAD cohorts: pharmacodynamic markers (fasting glucose, glucagon, HbA1c, hs-CRP); format: in vivo, human; settings: for hs-CRP reduction: day 127
Text: (§1) Enrollment into the SAD and MAD cohorts was sequential.
(§2) No missing data was imputed.

[3] = Predicted exposure multiples based on NOAEL established in cynomolgus monkeys; design: species or system cynomolgus monkey; settings: NOAEL 120 mg/kg in cynomolgus monkeys
Text: (§3) The rationale for dose selection for Part C is based on the available PK data from this ongoing FIH study cohorts 1 to 11 (Part A and Part B) and the NOAEL exposures established based on 13-week GLP repeat-dose studies in mouse and cynomolgus monkeys.

[4] = Phase 1 SAD/MAD clinical study: body weight, BMI, waist circumference; format: in vivo, human; settings: for decrease in body weight: MAD 420 mg Q4W
Procedure: Eligible participants were women of non-reproductive potential and men aged 18 to 65 years with a body mass index (BMI) between 30.0 kg/m2 and 40.0 kg/m2 and HbA1c≤6.5% and/or a fasting glucose of […]125 mg/dl. Participants had normal vital signs, 12-lead electrocardiogram results and clinical laboratory tests at the time of randomization.
as §1, §2

[5] = Predicted exposure multiples based on NOAEL established in mice; design: species or system mouse; settings: NOAEL 150 mg/kg in mice
Text: as §3

[6] = Phase 1 SAD/MAD clinical study (NCT04478708): pharmacokinetics; format: in vivo, human
Text: as §1, §2

[7] = Intact AMG 133, cohort 13, 420 mg SC
[8] = Total AMG 133, cohort 12, 420 mg SC
[9] = Total AMG 133, cohort 13, 420 mg SC
[10] = Intact AMG 133, cohort 12, 420 mg SC

maridebart cafraglutide [AMG 133]
heart rate ([1]; MAD cohorts): the 280 mg cohort had higher heart rates than the 140 mg or 420 mg cohort | nausea and vomiting ([1]; MAD cohorts): all participants who received AMG 133 experienced mild nausea and vomiting | subjects reporting mild GI-related adverse events (mainly nausea, vomiting, diarrhea) ([1]; MAD cohorts 7 to 10, after the first dose): Approximately 90% | subjects experiencing GI-related adverse events ([1]; MAD cohorts 7 to 10, after the second dose): less than 5% | serious adverse events or deaths ([1]; MAD cohorts 7 to 10, any dose): no serious adverse events or deaths reported after any of the doses | subjects who discontinued the study prior to receiving the second dose ([1]; MAD trial): Approximately 26% | serious TEAEs, TEAEs leading to permanent discontinuation, severe TEAEs ([1]; SAD and MAD): No serious TEAEs, TEAEs leading to permanent discontinuation, or severe TEAEs were reported | tolerability ([1]; SAD and MAD participants): tolerated AMG 133 well | dyspepsia ([1]; SAD cohorts): more frequently reported with lower doses (70 mg and 140 mg) | heart rate ([1]; SAD cohorts): increased with a single dose of 280, 560 or 840 mg AMG 133 but not in a dose-dependent manner | nausea and vomiting ([1]; SAD cohorts): reported in participants treated with ≥70 mg AMG 133 | severity of GI-related TEAEs ([1]; SAD cohorts): all GI-related TEAEs were mild except one participant in the 140 mg cohort had moderate GI symptoms | serious adverse events or deaths ([1]; SAD cohorts 1 to 6 and 11): no serious adverse events or deaths have been reported | subjects who withdrew consent due to GI-related adverse events ([1]; cohort 9, after 420 mg dose on day 1): 50% | blood pressure ([1]; single dose or multiple doses): No meaningful changes in blood pressure | hs-CRP reduction ([2]; MAD 140 mg): normalized to baseline | glucagon ([2]; MAD 280 mg, day 85 and day 127): greatest reduction in glucagon was observed at day 85 which normalized by day 127 | fasting glucose ([2]; MAD 420 mg, safety follow up (day 127)): lower glucose levels were maintained | fasting glucose ([2]; MAD 140 and 280 mg, safety follow up (day 127)): returned to above baseline | fasting glucose ([2]; MAD 140 and 420 mg, day 29 and 85): decreased in a dose-responsive manner | hs-CRP reduction ([2]; MAD 280 and 420 mg): sustained until day 127 | hs-CRP change from baseline ([2]; MAD cohorts): dose-responsive decrease | HbA1c levels ([2]; MAD, all three dose groups, normal range at baseline): decreased in all three dose groups but trended towards baseline at day 127 | Predicted Exposure Multiples Monkey AUC [3, 7]: ~43.2 fold | Predicted Exposure Multiples Monkey AUC [3, 8]: 48.9 fold | Predicted Exposure Multiples Monkey AUC [3, 9]: ~45.5 fold | maximal reduction of body weight from baseline ([4]; MAD 140 mg Q4W, after 3 doses, day 78): 7.44% | reduction of body weight from baseline ([4]; MAD 140 mg Q4W, post-dose day 7): 1.97% | waist circumference ([4]; MAD 140 mg and 420 mg): dose-dependent decrease | waist circumference ([4]; MAD 280 mg): fluctuations in waist circumference changes | decrease in body weight ([4]; day 7): −4.86% | decrease in body weight ([4]; day 85): −14.5% | duration of body weight reduction ([4]; MAD cohorts, multiple doses): maintained until end of study day 207 | change from baseline in BMI ([4]; SAD and MAD): followed a similar pattern as the change in body weight | duration of body weight decrease ([4]; all SADs except lowest dose 21 mg): maintained until day 150 | change in mean body weight from baseline ([4]; all dose levels (SADs and MADs)): decreases in mean body weight from baseline | maximal decrease of body weight from baseline ([4]; single dose 21 mg, day 29): 2.39% | mean percent change of body weight from baseline ([4]; single dose 21 mg, post-dose day 6): −1.59% | mean percent change of body weight from baseline ([4]; single dose 840 mg, day 6): −2.85% | maximal decrease of body weight from baseline ([4]; single dose 840 mg, day 92): 8.24% | Predicted Exposure Multiples Mouse AUC [5, 10]: ~42.4 fold | Predicted Exposure Multiples Mouse Cmax [5, 10]: ~43 fold | Predicted Exposure Multiples Mouse AUC [5, 7]: ~40.6 fold | Predicted Exposure Multiples Mouse Cmax [5, 7]: ~41.3 fold | Predicted Exposure Multiples Mouse AUC [5, 8]: 51 fold | Predicted Exposure Multiples Mouse Cmax [5, 8]: 54.3 fold | Predicted Exposure Multiples Mouse AUC [5, 9]: ~47.5 fold | Predicted Exposure Multiples Mouse Cmax [5, 9]: ~50.9 fold | dose proportionality of pharmacokinetics ([6]; doses 21 mg to 840 mg): dose-proportional | pharmacokinetics linearity based on Cmax ([6]; preliminary review, FIH SAD and MAD, AUC data pending): linear, dose proportional kinetics
